Tests used:
human VEGF-165 [1] = target: T1, human VEGF-165 (human, UniProt P15692-4 27-191); assay: direct VEGF binding ELISA and competition ELISA with bevacizumab, HRP anti-His detection; 293F supernatant and lysate
Experimental: The cells and media were harvested from the flask and the supernatant and cells were separated by centrifuging for 10 mins, 1000 rpm. The supernatant was collected and the remaining cell pellet resuspended in 1 ml of cell media before carrying out 3 freeze-thaw cycles to lyse the cells. Post-lysis the cell debris and media was separated by a second centrifugation step and the supernatant from the lysate was collected. The supernatants or lysates were diluted 1 in 2 in 3% BSA/PBS 0.05% tween. […] Samples were added to the plates at 100 μl/well and incubated for 1 hr VEGF bound ScFv was detected using HRP-conjugated polyclonal anti-His (Abcam ab1187) followed by TMB detection.

human VEGF-165 [2] = target: T1, human VEGF-165; assay: VEGF binding ELISA, HRP anti-His detection
Experimental: Plates were washed between all subsequent binding steps with PBS 0.05% Tween 20. The plates were blocked for 1 hour at room temperature with 3% BSA in PBS 0.05% Tween 20.
AD293 cells were seeded in 6 well culture plates at a density of 5e5 cells per well. […] Cells were cultured for 72 hrs before the supernatants were collected from the wells and centrifuged for 5 mins, 1200 rpm to remove cell debris. The clarified supernatants were then used for either VEGF binding ELISA or Western blot analysis. […] Samples were added to the plates at 100 μl/well and assay. The detection antibody, HRP conjugated polyclonal anti-His (Abcam ab1187) was then applied for 1 hr at room temperature before HRP detection was performed with HRP substrate solution 3.3.5.5′-teramethylethylenediamine (TMB, Thermo-Fisher). 1M HCl was used for stopping the reaction and the developed colour was measured at 450 nm on a plate reader.

recombinant CTLA4-Fc = target: T2, recombinant CTLA4-Fc (UniProt P16410 37-162); assay: direct CTLA-4 binding ELISA on CTLA4-Fc coated plates; supernatant diluted 1 in 2 to 1 in 2048
T2 construct: also called CTLA4-Fc (R&D Systems, 325-CT-200); not shown: Fc part of the bought fusion protein

recombinant PDL1-Fc = target: T3, recombinant PDL1-Fc (UniProt Q9NZQ7 19-239); assay: direct PD-L1 binding ELISA on PDL1-Fc coated plates; 10-fold concentrated supernatant diluted 1 in 2 to 1 in 2048; anti-kappa light chain detection
T3 construct: also called PDL1-Fc (R&D Systems, 156-B7-100); not shown: Fc part of the bought fusion protein

[3] = target: T4, non-recombinant PD-L1 ligand expressed in a membrane environment on the surface of lung carcinoma cells (A549) (human, UniProt Q9NZQ7 19-290); assay: flow cytometry on A549 cells with or without IFNgamma stimulation; 50 ul concentrated supernatant; Alexa-fluor 488 anti-human IgG detection
T4 construct: whole, on cells; also called cellular PD-L1; PD-L1 on IFNg stimulated A549 cells
T4 sequence (Q9NZQ7 19-290): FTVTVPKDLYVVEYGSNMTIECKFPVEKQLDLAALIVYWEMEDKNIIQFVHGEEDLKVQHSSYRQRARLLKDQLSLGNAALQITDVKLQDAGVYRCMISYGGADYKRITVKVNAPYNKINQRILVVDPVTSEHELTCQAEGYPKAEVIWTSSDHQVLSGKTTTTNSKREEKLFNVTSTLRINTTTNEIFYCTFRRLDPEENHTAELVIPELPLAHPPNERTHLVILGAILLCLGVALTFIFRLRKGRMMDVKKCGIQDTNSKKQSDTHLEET
Experimental: A549 cells were either stimulated with 50 ng/ml human IFNγ to promote upregulation of PD-L1 expression on the cell surface or left unstimulated. […] The cells were washed again, resuspended in PBS/1% BSA and analysed with an Attune acoustic focusing cytometer (Life Technologies).

T1 sequence (P15692 other isoform, or with tags, fused parts or gaps limits assumed): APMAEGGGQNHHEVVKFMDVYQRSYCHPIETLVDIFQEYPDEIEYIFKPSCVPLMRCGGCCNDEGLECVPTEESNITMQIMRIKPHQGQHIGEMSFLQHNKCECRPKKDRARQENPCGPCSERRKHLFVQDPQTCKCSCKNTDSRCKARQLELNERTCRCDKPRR
T3 sequence (Q9NZQ7 19-239 limits assumed): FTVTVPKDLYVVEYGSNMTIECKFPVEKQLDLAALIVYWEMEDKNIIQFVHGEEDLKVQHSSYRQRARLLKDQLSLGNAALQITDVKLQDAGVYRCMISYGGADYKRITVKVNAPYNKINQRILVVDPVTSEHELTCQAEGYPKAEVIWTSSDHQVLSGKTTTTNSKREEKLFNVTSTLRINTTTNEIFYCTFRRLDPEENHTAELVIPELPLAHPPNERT
T2 sequence (P16410 37-162 limits assumed): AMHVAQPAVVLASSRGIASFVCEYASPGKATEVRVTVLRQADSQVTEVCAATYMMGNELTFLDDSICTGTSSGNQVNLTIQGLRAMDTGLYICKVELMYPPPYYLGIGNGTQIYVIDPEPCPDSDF

B1: anti-VEGF ScFv with C-terminal His6 tag expressed from NG-78 infected cells (scFv)
scFv: EVQLVESGGGLVQPGGSLRLSCAASGYTFTNYGMNWVRQAPGKGLEWVGWINTYTGEPTYAADFKRRFTFSLDTSKSTAYLQMNSLRAEDTAVYYCAKYPHYYGSSHWYFDVWGQGTLVTVSSGGGGSGGGGSGGGGSDIQMTQSPSSLSASVGDRVTITCSASQDISNYLNWYQQKPGKAPKVLIYFTSSLHSGVPSRFSGSGSGTDFTLTISSLQPEDFATYYCQQYSTVPWTFGQGTKVEIKRHHHHHH
notes: also called NG-78 anti-VEGF ScFv
Human VEGF-165 [1]
  binding result: binds

B2: anti-VEGF ScFv with C-terminal His6 tag expressed from NG-76 infected cells (scFv)
scFv: B1 scFv
notes: also called NG-76 anti-VEGF ScFv
Human VEGF-165 [2]
  binding result: binds

B3: anti-VEGF full length IgG1 antibody secreted from NG-165 infected cells (antibody, V domains shown)
VH: EVQLVESGGGLVQPGGSLRLSCAASGYTFTNYGMNWVRQAPGKGLEWVGWINTYTGEPTYAADFKRRFTFSLDTSKSTAYLQMNSLRAEDTAVYYCAKYPHYYGSSHWYFDVWGQGTLVTVSS
VL: DIQMTQSPSSLSASVGDRVTITCSASQDISNYLNWYQQKPGKAPKVLIYFTSSLHSGVPSRFSGSGSGTDFTLTISSLQPEDFATYYCQQYSTVPWTFGQGTKVEIKR
Recombinant CTLA4-Fc
  binding result: no binding
Recombinant PDL1-Fc
  binding result: no binding

B4: anti-VEGF full length antibody (human IgG1) secreted from NG-135 infected cells (antibody, V domains shown)
VH: B3 VH
VL: B3 VL
notes: also called SSA-Bev-PA
[3]
  binding result: no binding

From patent US20180311291A1 (PSIOXUS THERAPEUTICS, published 2018)
